Measured values from the DeepSol protein solubility set.

assay: soluble on expression in E. coli; label from the status in PepcDB or PDB records

Row | Sequence | soluble on expression in E. coli
1 | MGSDKIHHHHHHMDINLRFFSRLNPWLNSLFTSKATLKTEIDEAQQGQMSLKTIANQYPLQARRGPITQVMLYQSLYASDDFVGREKQLNQITDVINQWRNHHGEISAIVSPAGSGGSSFLGQLPPLLQTIIADDAKKAPMPDVKPLPSKWLLMSFYQAPLGANGAIAHVCYCFGITPPNTITETIAAINQQPPQLIMIDDMHKLMLRMMGNNQALVTFATIVMETRKHHCWIMGCEIFAWQRLSAQYQIHHFIKHVFQLDYFSETELATIQTKHLLDLGLISNDVMAKETTTTPPNNTNKSTKEQTEQANIEQVDIVNPYKDQLKQLYTISQGHPKLASLLLQYSLAHQVDIGSDNSSNSRSNNGIDICRINSSVLQQCQDNDLFSVAEIYVHGGLRVSQHAHIFAITIEQSSLQLEYLARQGLIIAQYSQQDFAEHFYFITPTLSKIIANHLVNNNKLFN | not soluble
2 | MSLSRSLSECIDQGRGLVPADLVLKHGRVFDLVTGELVQTDVAICGDRIVGTFGTYTGRREIDCRGRILVPGFIDTHLHVESSLVTPFEFDRCVTPRGITTAICDPHEIANVCGLEGIRYFLEASAHLVMDLRVQLSSCVPSTHMETAGAALEAKDLAPLMDHPRVIGLAEFMNFPGVLMKDPGCMAKLEAFRGRHIDGHAPLLRGKDLNGYIAAGIRTEHEATTAEEALEKLRKGMRVLIREGSVSKDLHALVSILTERHAPYLCLCTDDRNPLDIAEHGHIDHMIRTAIRLGAPPLAVYRAASLSAADAFGLKDRGLIAPGRRADIAVLDSLEGCHAALVLAGGVVADDAAFSARSDIEPVARASVKVAEIAPEAFRCPGNRADTPVIGILPGKIITEHLTAEIEPVDGDKRPDPVRDLARIAVIERHGKTGGRATGFVRGFGMARGAIASTVCHDHHNLAVVGIDYADMALAANRLRALEGGFAVAAGGEILAELALPVGGLMSLRPFEEVRDALVTLREAARSLGVTLEEPFLQLAFLALPVIPHLKITDRGMVDVDRFEILEGHHHHHH | soluble
3 | MGTKTKKTLFNVDEQMKAIAAQFETLQILNEKGEVVNEAAMPELSDDQLKELMRRMVYTRVLDQRSISLNRQGRLGFYAPTAGQEASQLASHFALEAEDFILPGYRDVPQLVWHGLPLYQAFLFSRGHFMGNQMPENVNALAPQIIIGAQIIQTAGVALGMKLRGKKSVAITYTGDGGASQGDFYEGMNFAGAFKAPAIFVVQNNRYAISTPVEKQSAAKTVAQKAVAAGIYGIQVDGMDPLAVYAATAFARERAVNGEGPTLIETLTFRYGPHTMAGDDPTRYRTKDIENEWEQKDPIVRFRAFLENKGLWSQEVEEKVIEEAKEDIKQAIAKADQAPKQKVTDLMEIMYEKMPYNLAEQYEIYKEKESK | not soluble
4 | MGSDKIHHHHHHMARKRDDAALHLPLPEERQVTAFLQAHPDFLVRHPDLLLSLSPPSRWADDDGVLDMQVFMIDRLRDEVERVRGAAEHLIHTSRSNMSIQTRTHRAVLSILGAESMAELVEAISDDLPALLDVDVATLCFEKSEEALPDLLAPGILTLPGGTVAQIMGGADRDCALTEEMPGDPALFGDGAGLVQSSAVVRLSPGGKSPDGVMALGSRHGRTFHAGQATELITFLARVVEGSVRRFVG | not soluble
5 | MGSDKIHHHHHHMQREEWFHRAVIYQVDSSLFYDANGDGFGDLAGIRQKLHYIRSLGATVLWLTPFYLTPLQDDGYDISDHLQPDPRFGTIADVIELIARARELGLRVIVELVIQHTSAQHPWFQAARRDPRSPWRPYYLWADRPPENDDPPMFPGVEESVWRWDEQAGQYYRHMFYHHEPDLNLAHPPVIAEIENIITFWLQAGVSGFRLDAASHLVKQAGKGDETRGYPLLTHLRQVVQRLNPDAILLGEVDVAVEDYRHYFGQGDRLQMVLNFWLNKYLYLSLAQQRAAPVVKALQAMVTPPDGCCFVNWLRNHDELDLEGIGERNKRQVIRTFAPDKSMSVYQRGVRRRLAPMLDGDTRRIALAHAILLALPGVPVMRYGDEIGMGDDLSLPERYAVRTPMQWSAAANAGFSRAARDDLPVKPVASGRFRYQRINVETALRHPRSLLHRVRNMVLARTEYTEPGSLPFTLLTLKPDAVLGLLYRSESREVLMLANCSQQAVEVLLPPLAEGYWSPILEDKLYQDGLHGGKDARLALSGYGYRWFSRSLS | not soluble
6 | MKHMLIAGGGIGGLSAAISLRKAGFSVTLCEAASENRKTGAGILQPQNALAVLKELGVFEDCCKHGFQTEWFKTFDEQGNLLFQVSESFLDDSLPGRNNILRKTLNDILMKHAEAVGVDIKWGKKVVAYEETAESVTALCEDGEKMQADILAGFDGIHSVVRDKMLQKETEKEHLGMGAWRFYIELPDYTFEDATFMYRSGDTQIGVVPLAQHAGYVFVLQPCTSDYWDEEDTRFDRVKEILSGFRGLDFVTKHMSKQHPVIFNKLEQVAVQEPWHKGRVIIGGDAAHAGAPTLAQGAAMAIEDAIVLAEELQNHADHETALQAYYKRRAPRALKVQNLSSEIVRRRLKGEPGAEELIGECYAVLREGYLEHHHHHH | not soluble
7 | MTIPTSYLNHTDAEAARKARATYRDGLVAPTSGIAPGFTQANMIVLPRDWAFDFLLYAQRNPKPCPVLDVSDPGSPTTLLAPGADLRTDLPLYRIWRDGKLAEETADATSAWAERDDLVAFLIGCSFTFETPMVEAGIEIRHMTDKSNVPMYLTNRPCRPAGRLKGNMVVSMRPIPASRVADAATISGRFPAVHGAPVHVGAPEQIGISDLSKPDFGDAVRIEPGEVPVFWACGVTPQAAVMASGVPFAITHAPGHMFITDIPDTAYHALEHHHHHH | soluble
8 | MRSLPIFPDLRAFLDWCARKGDLSRIAEPVSLRHETTAVASKILRGGGPVLRFESLRDTSATMPLVANLFGTRERVAAGLGLGLEQIPELGAFLAALRAPAPVAGMRDALSRWPQLQAALNTRAKIVRSAEAQEVVHEGAAVDLGMIPVPTCWPGDAGPLVTWPVVLTRPHGTSAEETLHYNAGVYRAQVIGRDRLIMRWLAHRGGAGHCRSWMRAGEPMPVALALGCDPALLLAAALPLPEQVSELTFSGVLRGARTPLVAGRTVPLMVPATAEIVVEGWVHPGDMAPEGPFGDHTGYYNSVEDFPVLRVSAITHRKDPLYLTTHTGRPPDEPSVIGEVFNDLAMPVFRQQIPEVKDLYLPPAACSYRIAIVSIDKRYPGQARRVMMALWGMLAQFSYTKMVIVVDEDINPRDWDDVAWAMATRMDPSRDVVLLEKTPMDYLDFASPEPGLAGKIGIDATNKIGPETHREWGEVMTQSPEAEAFADRLIAKLRIGALEHHHHHH | not soluble
9 | MSLAQFYSAKRRTTTRQIITVSVNDLDSFGQGVARHNGKTLFIPGLLPQENAEVTVTEDKKQYARAKVVRRLSDSPERETPRCPHFGVCGGCQQQHASVDLQQRSKSAALARLMKHDVSEVIADVPWGYRRRARLSLNYLPKTQQLQMGFRKAGSSDIVDVKQCPILAPQLEALLPKVRACLGSLQAMRHLGHVELVQATSGTLMILRHTAPLSSADREKLERFSHSEGLDLYLAPDSEILETVSGEMPWYDSNGLRLTFSPRDFIQVNAGVNQKMVARALEWLDVQPEDRVLDLFCGMGNFTLPLATQAASVVGVEGVPALVEKGQQNARLNGLQNVTFYHENLEEDVTKQPWAKNGFDKVLLDPARAGAAGVMQQIIKLEPIRIVYVSCNPATLARDSEALLKAGYTIARLAMLDMFPHTGHLESMVLFSRVKEGHHHHHH | soluble
10 | SPTNLANGLSSLLKPLKFFHLPIDEISLMLALSLRFVPTLMDETGKIMNAQRARGVDFGEGNIFQQMRSLVPIFIPQFIASFNRADELATAMESRGYRGAAKRTKFNRLKFK | not soluble
11 | MAHHHHHHMAWTCSALSNASMIQNLERAALLSTPAIIASLQRVDRGWFVPDGMRSSAYRDEPLSLGHGATISAPHMHAIMLELLSPFLLSTPGSLPKAVLDIGSGSGYLTAILADICGDGSRVVGVEHVVELQERSLKVVLQHFPSWVNEGRITFINGDGRDISKLFHPHTAMFDVIHVGAAAASVPKDYLEAIKPGGCLVIPVGKENEVQHLHLYTKDEKGTITKKTHGGVSFVPLTSLRHQKNRS | soluble
12 | MQVQRAITRNLAKANGYFNKTFKPPTVNYTVRGLKAGVAYLQQNQIRFNPILLQENGQAFIQQVIPHELAHILVFQQFGHVLPHGKEWQMMMEQVLGTSAEVYHTFNTQNVAGQQFAYICACQTHLLSIRLHNAILKNKRQYICKQCKQVLYYKDVLANYSNNTKKLEHHHHHH | not soluble
13 | MGSDKIHHHHHHMNFEKIEQAYDLLLENVQTIQNQLGTNIYDAMIEQNAAYVANQHETDLVVNNNQTLKQLDLTKEEWRRAYQFLLIKANQTEPMQYNHQFTPDSIGFILSFLVDQLVPTQKVTVLEIGSGTGNLAQTILNASQKDLDYLGIEVDDLLIDLSASIADVMQADISFAQGDAVRPQILKESQVILGDLPIGYYPDDQIASRYQVASPNEHTYAHHLLMEQSLKYLEKDGFAILLAPNDLLTSPQSDLLKGWLQEQANIVAMIALPPNLFGKAAMAKSIFVLQKKAARSLTPFVYPLQSLQEPEAIQKFM | not soluble
14 | MGSDKIHHHHHHMTDDIYFAPLLPWQHGLWSQLTMRVLAQKQSLPHALLAAGMQGMGKRAFVWRLVAWLLCRARDEHPLGACGHCESCQWLRSGTHPSLQALPLISLPISADNAHTQEVASGTAKDKKTTKAASNGSLKIKVDEIRALQPFIYQGGQGMRICVLDHAEQMTIAAANALLKTLEEPQAQVHLFLISDAPAQLLPTIKSRVQQLSLQTIDPAIAVDYVTKVLGSTVHREALGTDVIEQLIQLANGAPLAAVALAQAPWYSKRALWLTTWQALRSGKRSSVAASDYWQIHLGIAEFIRLSELMVIDIRRVGLGFEAQQKDINFSTTLNGYQPIDNELEAFAHSLQQTKIALQQNVQEKFAYDKLMQELACL | not soluble
15 | MYETQVQELSPEEAKRLYDQGVPFFDVREVEEYAQARIPGARLLPLSEFMARYGEIPKDTPVVLYCRTGNRSWQAAAWLSAQGYRVYNLEGGIVRWYRAGLPVDTTPMEAAYRATPYQEVGPEEAKALLEEAFVVDVREAWEYGEGHVPGAVNIPLSTLPQRLAELPKDRPILLVCNSGNRSGVAAEFLVAQGFDGERVYNLEGGTYAWASRGLPLER | soluble
16 | MSLMLEPNPTQIKEERIYAEMGLTDEEFAMVEKILGRLPNYTETGLFSVMWSEHCSYKNSKPVLRKFPTTGERVLQGPGEGAGIVDIGDNQAVVFKMESHNHPSAIEPYQGAATGVGGIIRDVFSMGARPVALLNSLRFGELQSPRVKYLFEEVVAGIAGYGNCIGIPTVGGEVQFDPCYEGNPLVNAMCVGLINHEDIKKGQAHGAGNTVMYVGASTGRDGIHGATFASEELSESSEAKRPAVQVGDPFMEKLLIEACLELIQSDALVGIQDMGAAGLTSSSAEMASKAGMGIEMYLDDVPQRETGMTPYEMMLSESQERMLIVVKKGREQEIVDLFEKYGLAAVTMGKVTEDKMLRLFHKGEMVAEVPADALAEEAPIYHKPSKEAAYFAEFQQMKMETPKVENYKETLFALLQQPTIASKEWVYDQYDYQVRTSTVVTPGSDAAVVRVRGTEKGLAMTTDCNSRYIYLDPEVGGKIAVAEAARNIVCSGGEPLAITDCLNFGNPEKPEIFWQIEKSVDGMSEACRTLQTPVIGGNVSMYNERSGEAVYPTPTVGMVGLVHDLKHVTTQEFKQAGDLVYVIGETKAEFGGSELQKMLHGKIFGQSPSIDLDVELKRQKQVLAAIQAGLVQSAHDVAEGGLAVAISESAIGANGLGATVKLDGEATAALFAESQSRFVITVKRENKEAFEKAVEAIQVGEVTNTNEVTIHNEENEVLLTANVDEMRKAWKGAIPCLLK | not soluble
17 | PATCPIVPGQEMIIEISKGRSGLGLSIVGGKDTPLNAIVIHEVYEEGAAARDGRLWAGDQILEVNGVDLRNSSHEEAITALRQTPQKVRLVVYRDEAHYRDEE | soluble
